In patent US20210087556:

Columns and labels:
[1] = biological target: FLAG-tag-labeled human SMAD3, expressed in LL29 cells from expression vector pEZ-M11 Flag-hSmad3 (UniProt P84022)
[2] = biological target: GST-fusion SMAD3 protein (Sigma-Aldrich Co. LLC.) (UniProt P84022)
GST-fusion SMAD3 protein (Sigma-Aldrich Co. LLC.), sequence (P84022 whole entry, looked up, the tested form may be a part): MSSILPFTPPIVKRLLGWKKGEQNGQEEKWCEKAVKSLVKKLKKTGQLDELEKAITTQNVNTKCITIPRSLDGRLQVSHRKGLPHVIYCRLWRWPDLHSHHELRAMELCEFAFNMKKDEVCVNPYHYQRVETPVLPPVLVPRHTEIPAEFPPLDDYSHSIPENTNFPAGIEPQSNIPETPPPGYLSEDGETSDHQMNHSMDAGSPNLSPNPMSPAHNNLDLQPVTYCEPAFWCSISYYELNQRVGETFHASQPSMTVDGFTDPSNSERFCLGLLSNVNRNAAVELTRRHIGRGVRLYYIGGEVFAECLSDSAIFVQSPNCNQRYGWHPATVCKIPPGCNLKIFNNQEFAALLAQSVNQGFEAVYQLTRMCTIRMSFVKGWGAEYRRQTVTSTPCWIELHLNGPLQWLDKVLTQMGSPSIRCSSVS

His-fusion NEK6 protein (Eurofins Scientific SE), sequence (chain, as listed by the source): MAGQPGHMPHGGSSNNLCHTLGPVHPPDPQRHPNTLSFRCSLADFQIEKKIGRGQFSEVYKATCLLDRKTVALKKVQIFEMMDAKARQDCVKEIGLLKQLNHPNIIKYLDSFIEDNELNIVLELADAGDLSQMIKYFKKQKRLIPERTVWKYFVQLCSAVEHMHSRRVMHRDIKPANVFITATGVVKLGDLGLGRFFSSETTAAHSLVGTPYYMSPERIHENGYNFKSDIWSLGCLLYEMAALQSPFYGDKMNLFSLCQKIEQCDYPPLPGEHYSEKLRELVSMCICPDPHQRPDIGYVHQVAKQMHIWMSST
FLAG-tag-labeled human SMAD3, expressed in LL29 cells from expression vector pEZ-M11 Flag-hSmad3, sequence (P84022 whole entry, looked up, the tested form may be a part): as the sequence (P84022 whole entry, looked up, the tested form may be a part) above

With “human NEK6 protein (NIMA-related serine/threonine kinase 6), expressed in LL29 cells from expression vector pEZ-M02 Nek6” the “amount of phosphorylated SMAD3 protein (Western blot of anti-FLAG coimmunoprecipitate)” value [1] was “transfection of a human NEK6 expression vector caused the amount of phosphorylated SMAD3 protein to be elevated”.
With “His-fusion NEK6 protein (Eurofins Scientific SE)” the “amount of phosphorylated SMAD3 (Western blot after in vitro kinase reaction with purified proteins)” value [2] was “By using NEK6 protein, the amount of phosphorylated SMAD3 was elevated”.
